Drawing on publication PMC7310041, this text covers percent of tau bound to MTs for one substance.

The test deals with microtubules (paclitaxel-stabilised polymerised tubulin) (human (endogenous in HEK293T)) (UniProt P68363). As to the kind of experiment: co-sedimentation; cell-based MT binding assay: lysate of transfected HEK293T cells in PEM buffer (80 mM PIPES pH 6.8, 1 mM EGTA, 1 mM MgCl2) with 0.1% Triton X-100, 2 mM GTP, 20 uM paclitaxel; 37 °C 30 min; 100,000 g 30 min; tau in supernatant and pellet by Western blot; percent MT-bound = pellet/(supernatant+pellet)*100. (In western blotting, separated proteins are transferred to a membrane and probed.)
Chain of UniProt P68363 (P68363 whole entry, chain 1 of 2): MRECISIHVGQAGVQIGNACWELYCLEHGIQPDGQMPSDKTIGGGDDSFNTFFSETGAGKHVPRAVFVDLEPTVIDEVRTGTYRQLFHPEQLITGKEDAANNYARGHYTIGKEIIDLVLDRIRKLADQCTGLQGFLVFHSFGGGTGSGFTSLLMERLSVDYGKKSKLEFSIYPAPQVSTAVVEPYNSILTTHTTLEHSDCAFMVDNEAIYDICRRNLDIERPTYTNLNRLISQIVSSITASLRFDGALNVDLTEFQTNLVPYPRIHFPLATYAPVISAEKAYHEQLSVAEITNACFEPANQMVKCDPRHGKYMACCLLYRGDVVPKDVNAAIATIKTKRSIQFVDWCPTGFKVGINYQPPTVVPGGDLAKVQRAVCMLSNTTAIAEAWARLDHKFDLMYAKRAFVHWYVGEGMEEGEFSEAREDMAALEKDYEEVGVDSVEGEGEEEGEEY
Chain of UniProt P68363 (P07437 whole entry, chain 2 of 2, further chain): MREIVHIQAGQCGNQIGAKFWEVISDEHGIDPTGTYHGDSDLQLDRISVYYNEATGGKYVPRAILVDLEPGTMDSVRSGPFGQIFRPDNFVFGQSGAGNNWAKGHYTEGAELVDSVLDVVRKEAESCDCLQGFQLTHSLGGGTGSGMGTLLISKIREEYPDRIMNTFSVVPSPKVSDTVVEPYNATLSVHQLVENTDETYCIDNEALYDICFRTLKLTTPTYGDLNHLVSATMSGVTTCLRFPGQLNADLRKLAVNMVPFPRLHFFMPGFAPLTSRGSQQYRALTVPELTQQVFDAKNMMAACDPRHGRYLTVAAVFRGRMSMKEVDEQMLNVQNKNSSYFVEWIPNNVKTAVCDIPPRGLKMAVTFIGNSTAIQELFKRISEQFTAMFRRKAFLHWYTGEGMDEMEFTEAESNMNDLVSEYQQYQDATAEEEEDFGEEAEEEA

In turn, “2N4R human tau S208E phosphomimetic (from UniProt P10636-8 1-441) (natural protein)” showed a percent of tau bound to MTs of 41%.
